According to PMC8373988 (2021):
Changes are numbered by the printed parent chain. Names may count otherwise.

B1: FICD^H363A (residues 104–445), dimeric, catalytically inactive [human] / AMPylated biotinylated-AviTag-haBiP^T229A-V461F (residues 27–635) [modified: AMP covalently attached to Thr518 (Thr518-AMP); biotin on the N-terminal Avi-tag; AMP … (parent complex)
chain 1: LEARAALNQALEMKRQGKREKAQKLFMHALKMDPDFVDALTEFGIFSEEDKDIIQADYLYTRALTISPYHEKALVNRDRTLPLVEEIDQRYFSIIDSKVKKVMSIPKGNSALRRVMEETYYHHIYHTVAIEGNTLTLSEIRHILETRYAVPGKSLEEQNEVIGMHAAMKYINTTLVSRIGSVTISDVLEIHRRVLGYVDPVEAGRFRTTQVLVGHHIPPHPQDVEKQMQEFVQWLNSEEAMNLHPVEFAALAHYKLVYIAPFIDGNGRTSRLLMNLILMQAGYPPITIRKEQRSDYYHVLEAANEGDVRPFIRFIAKCTETTLDTLLFATTEYSVALPEAQP
chain 2: not shown
B2: FICD^L258D-H363A (residues 104–445), monomeric, catalytically inactive [human] / AMPylated biotinylated-AviTag-haBiP^T229A-V461F (residues 27–635) [modified: AMP covalently attached to Thr518 (Thr518-AMP); biotin on the N-terminal Avi-tag; … (parent complex)
chain 1: B1 chain 1 with L155D
chain 2: not shown

Variants of: B1
Experiment: BLI; 50 nM FICD analyte; immobilised BiP activated in 2 mM ATP; read at end of apo association (600 s); parent: 0.2; read off a plot

response	Variant
~0.75 nm	chain 1 L155D

Variants of: B1
Experiment: BLI; 50 nM FICD analyte; immobilised BiP-AMP activated in 2 mM ATP; read at end of apo association (600 s); parent: 0.92; read off a plot

response	Variant
~0.75 nm	chain 1 L155D

Variants of: B1
Experiment: BLI; 50 nM FICD analyte; immobilised BiP activated in 2 mM ATP; read at end of apo association (600 s); parent: 0.24; read off a plot

response	Variant
~0.01 nm	chain 1 K21E
~0.04 nm	chain 1 E2R

Variants of: B1
Experiment: BLI; 50 nM FICD analyte; immobilised BiP-AMP activated in 2 mM ATP; read at end of apo association (600 s); parent: 0.74; read off a plot

response	Variant
~0.43 nm	chain 1 K21E
~0.03 nm	chain 1 K21E, chain 1 H28A
~0.66 nm	chain 1 H28A
~0.73 nm	chain 1 E2R

Variants of: B1
Experiment: BLI; 50 nM FICD analyte, oxidised (TPRox); immobilised BiP activated in 2 mM ATP; read at end of apo association (600 s); parent: 0.24; read off a plot

response	Variant
~0.31 nm	chain 1 D57C, chain 1 T80C, chain 1 C318S

Variants of: B1
Experiment: BLI; 50 nM FICD analyte, oxidised (TPRox); immobilised BiP-AMP activated in 2 mM ATP; read at end of apo association (600 s); parent: 0.74; read off a plot

response	Variant
~0.79 nm	chain 1 D57C, chain 1 T80C, chain 1 C318S

Variants of: B2
Experiment: BLI; 50 nM FICD analyte; immobilised BiP-AMP activated in 2 mM ATP; read at end of apo association (600 s); parent: 0.7; read off a plot

response	Variant
~0.12 nm	chain 1 E2R
~0.2 nm	chain 1 H28A

Variants of: B2
Experiment: BLI; 50 nM FICD analyte, oxidised (TPRox); immobilised BiP activated in 2 mM ATP; read at end of apo association (600 s); parent: 0.68; read off a plot

response	Variant
~0.92 nm	chain 1 D57C, chain 1 T80C, chain 1 C318S

Variants of: B2
Experiment: BLI; 50 nM FICD analyte, oxidised (TPRox); immobilised BiP-AMP activated in 2 mM ATP; read at end of apo association (600 s); parent: 0.7; read off a plot

response	Variant
~0.91 nm	chain 1 D57C, chain 1 T80C, chain 1 C318S
